The target in this assay is STAT3^136-705, P40763. In words: thermal shift assay. The note with it: chain shown with the change; 25 μM phosphopeptides; parent: est. 54; read off a plot.
Chain of STAT3^136-705, P40763 (P40763 136-705): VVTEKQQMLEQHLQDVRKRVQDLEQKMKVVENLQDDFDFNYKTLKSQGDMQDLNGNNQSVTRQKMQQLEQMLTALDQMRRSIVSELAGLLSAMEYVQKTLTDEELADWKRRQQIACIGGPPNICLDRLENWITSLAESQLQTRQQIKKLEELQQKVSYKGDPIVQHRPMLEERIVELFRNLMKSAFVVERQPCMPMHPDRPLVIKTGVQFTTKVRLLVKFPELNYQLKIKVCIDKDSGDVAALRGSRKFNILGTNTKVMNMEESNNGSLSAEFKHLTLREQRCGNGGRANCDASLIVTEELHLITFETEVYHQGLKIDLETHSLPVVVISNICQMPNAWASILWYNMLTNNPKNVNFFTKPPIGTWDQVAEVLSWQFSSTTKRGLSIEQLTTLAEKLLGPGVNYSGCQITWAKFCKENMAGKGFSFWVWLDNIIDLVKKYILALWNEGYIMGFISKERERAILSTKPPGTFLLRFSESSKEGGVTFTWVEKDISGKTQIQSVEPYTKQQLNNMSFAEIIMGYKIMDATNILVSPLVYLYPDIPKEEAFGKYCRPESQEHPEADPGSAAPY

B1: gp130 phosphopeptide R168I (peptide)
chain: SGYIHQVPSV
For B1, the other: Tm of STAT3 with bound peptide (thermal shift) was 55 °C.
